Results from publication PMC10873206 (Nature Structural & Molecular Biology, 2024).

Legend:
neddylated CUL1–RBX1 = molecular target: T1, neddylated CUL1–RBX1 (human, UniProt Q13616 1-776; P62877 5-108; Q15843 1-76, NEDD8 covalently linked to a conserved cullin lysine (WHB domain) | C terminus covalently linked to the cullin lysine); experiment: cryo-EM structure; trapped chain formation complex: neddylated CUL1–RBX1, SKP1–FBXW7, K48C ubiquitin–cyclin E phosphopeptide, donor ubiquitin(1–75), UBE2R2; SEC-purified; 8.1 Å map, rigid-body fits; conditions: both partners purified
T1 construct: CUL1, human, wild type; RBX1, human, residues 5 to C terminus; NEDD8, human; purified as previously described; also called NEDD8–CUL1–RBX1; neddylated CRL1 core; source: High Five insect cells (baculovirus), co-expressed, purified (GST-sepharose, TEV cleavage, ion exchange, SEC); neddylated as previously described; not shown: GST, N-terminal, cleaved; copies: + +
T1 sequence (Q13616 whole entry, chain 1 of 3, the tested form may be a part): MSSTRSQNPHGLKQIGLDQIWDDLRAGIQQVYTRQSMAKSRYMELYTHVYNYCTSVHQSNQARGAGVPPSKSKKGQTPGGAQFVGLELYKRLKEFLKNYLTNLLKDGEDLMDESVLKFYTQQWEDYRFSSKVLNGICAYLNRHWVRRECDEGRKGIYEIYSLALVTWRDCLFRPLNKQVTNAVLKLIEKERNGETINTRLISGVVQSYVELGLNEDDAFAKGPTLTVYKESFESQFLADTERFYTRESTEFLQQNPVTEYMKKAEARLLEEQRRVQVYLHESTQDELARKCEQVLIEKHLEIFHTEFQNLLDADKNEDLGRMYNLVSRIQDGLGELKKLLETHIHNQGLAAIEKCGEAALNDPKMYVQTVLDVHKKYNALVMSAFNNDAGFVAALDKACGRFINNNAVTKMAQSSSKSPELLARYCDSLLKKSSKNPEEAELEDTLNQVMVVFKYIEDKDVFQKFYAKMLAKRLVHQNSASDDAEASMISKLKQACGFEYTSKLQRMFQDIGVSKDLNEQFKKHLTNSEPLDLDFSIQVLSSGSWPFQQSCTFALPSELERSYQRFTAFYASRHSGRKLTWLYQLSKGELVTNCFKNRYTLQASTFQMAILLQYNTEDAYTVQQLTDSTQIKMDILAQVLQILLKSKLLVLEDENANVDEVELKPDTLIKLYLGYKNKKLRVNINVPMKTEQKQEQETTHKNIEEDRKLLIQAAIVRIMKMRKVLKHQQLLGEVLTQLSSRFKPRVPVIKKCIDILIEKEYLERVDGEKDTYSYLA
T1 sequence (P62877 5-108, chain 2 of 3): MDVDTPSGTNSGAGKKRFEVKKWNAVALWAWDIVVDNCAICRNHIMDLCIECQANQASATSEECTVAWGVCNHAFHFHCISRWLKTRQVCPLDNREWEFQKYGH
T1 sequence (Q15843 1-76, chain 3 of 3): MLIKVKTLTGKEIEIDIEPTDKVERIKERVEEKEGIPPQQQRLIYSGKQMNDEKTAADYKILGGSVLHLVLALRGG

[1] = molecular target: T2, His-ubiquitin(1–75)–BmDPA (human, UniProt P0CG48 1-75, C terminus (residue 75) conjugated to (E)-3-[2-(bromomethyl)-1,3-dioxolan-2-yl]prop-2-en-1-amine (BmDPA), cross-linked to Cys48 of the acceptor ubiquitin and to the UBE2R2 active site cysteine); experiment: cryo-EM structure; trapped chain formation complex: neddylated CUL2–RBX1, Elongin B/C–VHL, PROTAC MZ1, K48C ubiquitin–BRD4 (352–460), donor ubiquitin(1–75), UBE2R2; SEC-purified; 7.5 Å map, rigid-body fits; conditions: both partners purified
T2 construct: ubiquitin, human, residues 1–75; also called UBD; donor ubiquitin

B1: UBE2R2 (enzyme, human, UniProt Q712K3 1-238, looked up)
chain: MAQQQMTSSQKALMLELKSLQEEPVEGFRITLVDESDLYNWEVAIFGPPNTLYEGGYFKAHIKFPIDYPYSPPTFRFLTKMWHPNIYENGDVCISILHPPVDDPQSGELPSERWNPTQNVRTILLSVISLLNEPNTFSPANVDASVMFRKWRDSKGKDKEYAEIIRKQVSATKAEAEKDGVKVPTTLAEYCIKTKVPSNDNSSDLLYDDLYDDDIDDEDEEEEDADCYDDDDSGNEES
notes: UBE2R2, human, wild type; In the trapped cryo-EM complexes the active site Cys93 is cross-linked to the BmDPA ligation mimic; in the di-ubiquitin synthesis assays it is thioesterified to 32P-labelled donor ubiquitin; also called WT (R2); UBE2R2 FL; source: E. coli Rosetta (DE3), purified (nickel-agarose or GST-sepharose, TEV, SEC); not shown: GST or 6xHis (either), N-terminal, cleaved
B1: binds (neddylated CUL1–RBX1); binds [1].
